Data as given in publication PMC6017454, “A Xylenol Orange-Based Screening Assay for the Substrate Specificity of Flavin-Dependent para-Phenol Oxidases” (Molecules : A Journal of Synthetic Chemistry and Natural …, 2018).

Legend:
[1] = substrate: COc1cc(CO)ccc1O; assay: purified protein; assay type: biochemical, Penicillium simplicissimum; conditions: 50 mM potassium phosphate, pH 7.5, 25 °C, O2 as electron acceptor
[2] = substrate: COc1cc(CO)ccc1O; assay: purified protein; assay type: biochemical, Rhodococcus jostii; conditions: 50 mM potassium phosphate, pH 7.5, 25 °C, O2 as electron acceptor

B1: His-VAO (vanillyl alcohol oxidase) (Penicillium simplicissimum) (protein)
chain: MSKTQEFRPLTLPPKLSLSDFNEFIQDIIRIVGSENVEVISSKDQIVDGSYMKPTHTHDPHHVMDQDYFLASAIVAPRNVADVQSIVGLANKFSFPLWPISIGRNSGYGGAAPRVSGSVVLDMGKNMNRVLEVNVEGAYCVVEPGVTYHDLHNYLEANNLRDKLWLDVPDLGGGSVLGNAVERGVGYTPYGDHWMMHSGMEVVLANGELLRTGMGALPDPKRPETMGLKPEDQPWSKIAHLFPYGFGPYIDGLFSQSNMGIVTKIGIWLMPNPRGYQSYLITLPKDGDLKQAVDIIRPLRLGMALQNVPTIRHILLDAAVLGDKRSYSSRTEPLSDEELDKIAKQLNLGRWNFYGALYGPEPIRRVLWETIKDAFSAIPGVKFYFPEDTPENSVLRVRDKTMQGIPTYDELKWIDWLPNGAHLFFSPIAKVSGEDAMMQYAVTKKRCQEAGLDFIGTFTVGMREMHHIVCIVFNKKDLIQKRKVQWLMRTLIDDCAANGWGEYRTHLAFMDQIMETYNWNNSSFLRFNEVLKNAVDPNGIIAPGKSGVWPSQYSHVTWKL
notes: N-terminal 6xHis tag plus single Gly, tag kept; codon-optimised, E. coli BL21; covalent FAD; VAO predominantly octameric
With B1 the Km [1] was 129 ± 15 µM, the kcat [1] was 2.5 ± 0.1 s⁻¹ and the kcat/Km [1] was 19000 M⁻¹ s⁻¹.

B2: EUGO-His (eugenol oxidase) (Rhodococcus jostii RHA1) (protein)
chain: MTRTLPPGVSDERFDAALQRFRDVVGDKWVLSTADELEAFRDPYPVGAAEANLPSAVVSPESTEQVQDIVRIANEYGIPLSPVSTGKNNGYGGAAPRLSGSVIVKTGERMNRILEVNEKYGYALLEPGVTYFDLYEYLQSHDSGLMLDCPDLGWGSVVGNTLDRGVGYTPYGDHFMWQTGLEVVLPQGEVMRTGMGALPGSDAWQLFPYGFGPFPDGMFTQSNLGIVTKMGIALMQRPPASQSFLITFDKEEDLEQIVDIMLPLRINMAPLQNVPVLRNIFMDAAAVSKRTEWFDGDGPMPAEAIERMKKDLDLGFWNFYGTLYGPPPLIEMYYGMIKEAFGKIPGARFFTHEERDDRGGHVLQDRHKINNGIPSLDELQLLDWVPNGGHIGFSPVSAPDGREAMKQFEMVRNRANEYNKDYAAQFIIGLREMHHVCLFIYDTAIPEAREEILQMTKVLVREAAEAGYGEYRTHNALMDDVMATFNWGDGALLKFHEKIKDALDPNGIIAPGKSGIWSQRFRGQNL
notes: E. coli TOP10; covalent FAD; EUGO dimeric
B2 was tested, and the Km [2] was 47 ± 5 µM, the kcat [2] was 8 ± 0.2 s⁻¹ and the kcat/Km [2] was 170000 M⁻¹ s⁻¹.
